Sequences and labels used below:
B1: SEQ ID NO 147 (peptide)
peptide: XXQTWQCXXXENN
modifications: Ac-[(D)Arg]-cyclo[[Abu]-QTWQC]-[Phe[4-(2-aminoethoxy)]-[2-Nal]-[3-cyclohexyl-Ala]-ENN-NH2
B2: SEQ ID NO 196 (peptide)
peptide: XNTWKXXXXKNNX
modifications: Ac-[Pen]-NTW-[Lys(Ac)]-[Pen]-[Phe[4-(2-aminoethoxy)]-[2-Nal]-[α-MeLeu]-[Lys(Ac)]-NN-[β-Ala]-NH2
B3: SEQ ID NO 153 (peptide)
peptide: XXQTWKCXXXENN
modifications: Ac-[(D)Arg]-cyclo[[Abu]-QTW-Lys(isoGlu-Palm)-C]-[Phe[4-(2-aminoethoxy)]-[2-Nal]-[4-amino-4-carboxy-tetrahydropyran]-ENN-NH2
B4: SEQ ID NO 184 (peptide)
peptide: XNTWQXXXXKNNX
modifications: (Ac-[Pen]-NTWQ-[Pen]-[Phe(4-CONH2)]-[2-Nal]-[α-MeLeu]-[Lys(Ac)]-NN-[(D)Lys]-NH2)2-DIG
B5: SEQ ID NO 198 (peptide)
peptide: XNTWKXXXXKNNX
modifications: Ac-[Pen]-NTW-[Lys(Ac)]-[Pen]-[Phe[4-(2-aminoethoxy)]-[2-Nal]-[α-MeLeu]-[Lys(Ac)]-NN-[Sar]-NH2
B6: SEQ ID NO 138 (peptide)
peptide: XXQTWQCXXXENN
modifications: Ac-[(D)Arg]-cyclo[[Abu]-QTWQC]-[Phe[4-(2-aminoethoxy)]-[2-Nal]-[α-MeLeu]-ENN-NH2
B7: SEQ ID NO 195 (peptide)
peptide: XNTWKXXXXKNNG
modifications: Ac-[Pen]-NTW-[Lys(Ac)]-[Pen]-[Phe[4-(2-aminoethoxy)]-[2-Nal]-[α-MeLeu]-[Lys(Ac)]-NNG-NH2
B8: SEQ ID NO 177 (peptide)
peptide: XNTWQXXXXKNNX
modifications: Ac-[Pen]-NTWQ-[Pen]-[Phe[4-(2-aminoethoxy)]-[2-Nal]-[α-MeLeu]-[Lys(Ac)]-NN-[(D)Gln]-NH2
B9: SEQ ID NO 175 (peptide)
peptide: XNTWQXXXXKNNX
modifications: Ac-[Pen]-NTWQ-[Pen]-[Phe[4-(2-aminoethoxy)]-[2-Nal]-[α-MeLeu]-[Lys(Ac)]-NN-[(D)Ile]-NH2
B10: SEQ ID NO 170 (peptide)
peptide: XNTWKXXXXKNN
modifications: Ac-[Pen]-NTW-[Lys(Ac)]-[Pen]-[Phe[4-(2-aminoethoxy)]-[2-Nal]-[α-MeLeu]-[Lys(Ac)]-NN-NH2
B11: SEQ ID NO 197 (peptide)
peptide: XNTWKXXXXKNNX
modifications: Ac-[Pen]-NTW-[Lys(Ac)]-[Pen]-[Phe[4-(2-aminoethoxy)]-[2-Nal]-[α-MeLeu]-[Lys(Ac)]-NN-[Ahx]-NH2
B12: SEQ ID NO 218 (peptide)
peptide: XNTWKXXXXKNNX
modifications: Ac-[Pen]-NTW-[Lys(Ac)]-[Pen]-[Phe[4-(2-aminoethoxy)]-[2-Nal]-[α-MeLeu]-[Lys(Ac-(D)Asn)]-NN-[(D)Ile]-NH2
B13: SEQ ID NO 174 (peptide)
peptide: XNTWQXXXXKNNX
modifications: Ac-[Pen]-NTWQ-[Pen]-[Phe[4-(2-aminoethoxy)]-[2-Nal]-[α-MeLeu]-[Lys(Ac)]-NN-[(D)Arg]-NH2

Positions of bridges follow the written chain, without caps; N, C: chain ends. Non-standard residues stand in square brackets, D forms with d. Groups on a side chain read outwards from the residue. 2Nal = N[C@@H](Cc1ccc2ccccc2c1)C(=O)O; AEF = NCCOc1ccc(C[C@H](N)C(=O)O)cc1; αMeL = CC(C)C[C@](C)(N)C(=O)O; Pen = CC(C)(S)[C@H](N)C(=O)O; dAbu = CC[C@@H](N)C(=O)O; Thp = NC1(C(=O)O)CCOCC1; Abu = CC[C@H](N)C(=O)O

The first experiment deals with T1, interleukin-23 receptor (IL-23R) (human, UniProt Q5VWK5 24-629).
T1 sequence (looked up): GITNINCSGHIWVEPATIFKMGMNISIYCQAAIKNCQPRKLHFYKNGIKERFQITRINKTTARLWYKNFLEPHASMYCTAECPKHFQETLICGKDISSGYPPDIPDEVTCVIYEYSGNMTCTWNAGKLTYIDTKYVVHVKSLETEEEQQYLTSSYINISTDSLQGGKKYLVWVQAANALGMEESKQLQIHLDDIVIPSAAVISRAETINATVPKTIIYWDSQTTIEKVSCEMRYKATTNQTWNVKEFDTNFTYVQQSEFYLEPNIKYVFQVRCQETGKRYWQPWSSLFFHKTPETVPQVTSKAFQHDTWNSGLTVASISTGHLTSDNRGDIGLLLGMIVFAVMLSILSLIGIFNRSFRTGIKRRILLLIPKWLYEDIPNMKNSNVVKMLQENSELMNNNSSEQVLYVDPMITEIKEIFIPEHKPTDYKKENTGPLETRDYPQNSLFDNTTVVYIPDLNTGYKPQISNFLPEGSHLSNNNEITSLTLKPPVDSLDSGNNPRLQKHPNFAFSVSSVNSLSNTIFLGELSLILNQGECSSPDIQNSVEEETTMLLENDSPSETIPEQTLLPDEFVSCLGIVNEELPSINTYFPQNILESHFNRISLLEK
In words: cell-based or functional assay.
Settings: not given
Consider B1, for which the “IC50, pStat3 HTRF (nM)” value was below 1 nM.

Take Ac-[dK]([Arg-Ac])[Pen]NTWK(Ac)[Pen][AEF][2Nal][αMeL]K(Ac)NN-NH2 (disulfide 2-7 (inferred)) [SEQ ID NO 234]: the “IC50, pStat3 HTRF (nM)” value is below 1 nM. Take Ac-K([Pro-Ac])[Pen]NTWK(Ac)[Pen][AEF][2Nal][αMeL]K(Ac)NN-NH2 (disulfide 2-7 (inferred)) [SEQ ID NO 229]: the “IC50, pStat3 HTRF (nM)” value was below 1 nM. With Ac-[dK]([Pro-Ac])[Pen]NTWK(Ac)[Pen][AEF][2Nal][αMeL]K(Ac)NN-NH2 (disulfide 2-7 (inferred)) [SEQ ID NO 236], the “IC50, pStat3 HTRF (nM)” value was below 1 nM. Regarding Ac-[dK]([Ser-Ac])[Pen]NTWK(Ac)[Pen][AEF][2Nal][αMeL]K(Ac)NN-NH2 (disulfide 2-7 (inferred)) [SEQ ID NO 233], the “IC50, pStat3 HTRF (nM)” value was below 1 nM. Take B2: the “IC50, pStat3 HTRF (nM)” value is below 1 nM. Still for that read-out and setting: in the case of B3 it was above 100 nM; in that of B4, below 1 nM; in that of B5, below 1 nM.

As for B6, the “IC50, pStat3 HTRF (nM)” value was below 1 nM.

With B7, the “IC50, pStat3 HTRF (nM)” value is below 1 nM.

As to Ac-[dK]([Phe-Ac])[Pen]NTWK(Ac)[Pen][AEF][2Nal][αMeL]K(Ac)NN-NH2 (disulfide 2-7 (inferred)) [SEQ ID NO 231], the “IC50, pStat3 HTRF (nM)” value is below 1 nM. Consider Ac-K([Phe-Ac])[Pen]NTWK(Ac)[Pen][AEF][2Nal][αMeL]K(Ac)NN-NH2 (disulfide 2-7 (inferred)) [SEQ ID NO 224], for which the “IC50, pStat3 HTRF (nM)” value was below 1 nM. In the case of B8, the “IC50, pStat3 HTRF (nM)” value is below 1 nM.

As to B9, the “IC50, pStat3 HTRF (nM)” value was below 1 nM. Still for that read-out and setting: the value for Ac-[Pen]NTWQ[dAbu][AEF][2Nal][αMeL]K(Ac)NN-NH2 (thioether 1-6) [SEQ ID NO 137] was above 100 nM; that for B10 was below 1 nM.

For the molecule B11, the “IC50, pStat3 HTRF (nM)” value was below 1 nM. Turning to XNTWQXXXXKNNY (Ac-[Pen]-NTWQ-[Pen]-[Phe[4-(2-aminoethoxy)]-[2-Nal]-[α-MeLeu]-[Lys(Ac)]-NNY-NH2) [SEQ ID NO 159], the “IC50, pStat3 HTRF (nM)” value is below 1 nM. Regarding XNTWQXXXXKNNR (Ac-[Pen]-NTWQ-[Pen]-[Phe[4-(2-aminoethoxy)]-[2-Nal]-[α-MeLeu]-[Lys(Ac)]-NNR-NH2) [SEQ ID NO 161], the “IC50, pStat3 HTRF (nM)” value is below 1 nM.

Turning to Ac-K([Leu-Ac])[Pen]NTWK(Ac)[Pen][AEF][2Nal][αMeL]K(Ac)NN-NH2 (disulfide 2-7 (inferred)) [SEQ ID NO 228], the “IC50, pStat3 HTRF (nM)” value was below 1 nM. Turning to Ac-K([Tyr-Ac])[Pen]NTWK(Ac)[Pen][AEF][2Nal][αMeL]K(Ac)NN-NH2 (disulfide 2-7 (inferred)) [SEQ ID NO 225], the “IC50, pStat3 HTRF (nM)” value is below 1 nM.

As for XNTWQXXXXKNNS (Ac-[Pen]-NTWQ-[Pen]-[Phe[4-(2-aminoethoxy)]-[2-Nal]-[α-MeLeu]-[Lys(Ac)]-NNS-NH2) [SEQ ID NO 165], the “IC50, pStat3 HTRF (nM)” value was below 1 nM. On the same count and under the same terms, in the case of Ac-K([Ser-Ac])[Pen]NTWK(Ac)[Pen][AEF][2Nal][αMeL]K(Ac)NN-NH2 (disulfide 2-7 (inferred)) [SEQ ID NO 226] it was below 1 nM. With Ac-[dK]([Tyr-Ac])[Pen]NTWK(Ac)[Pen][AEF][2Nal][αMeL]K(Ac)NN-NH2 (disulfide 2-7 (inferred)) [SEQ ID NO 232], the “IC50, pStat3 HTRF (nM)” value was below 1 nM. Consider Ac-[dK]([Leu-Ac])[Pen]NTWK(Ac)[Pen][AEF][2Nal][αMeL]K(Ac)NN-NH2 (disulfide 2-7 (inferred)) [SEQ ID NO 235], for which the “IC50, pStat3 HTRF (nM)” value was below 1 nM. As for B12, the “IC50, pStat3 HTRF (nM)” value is below 1 nM. The same measure, in the same setting: in the case of XNTWQXXXXKNNQ (Ac-[Pen]-NTWQ-[Pen]-[Phe[4-(2-aminoethoxy)]-[2-Nal]-[α-MeLeu]-[Lys(Ac)]-NNQ-NH2) [SEQ ID NO 164] it was below 1 nM. Take Ac-K([Arg-Ac])[Pen]NTWK(Ac)[Pen][AEF][2Nal][αMeL]K(Ac)NN-NH2 (disulfide 2-7 (inferred)) [SEQ ID NO 227]: the “IC50, pStat3 HTRF (nM)” value is below 1 nM. In the case of XXQTWQCXXXENN (Ac-[(D)Arg]-cyclo[[Abu]-QTWQC]-[Phe[4-(2-aminoethoxy)]-[2-Nal]-[Aib]-ENN-NH2) [SEQ ID NO 148], the “IC50, pStat3 HTRF (nM)” value was below 1 nM. Regarding Ac-K([Glu-Ac])[Pen]NTWK(Ac)[Pen][AEF][2Nal][αMeL]K(Ac)NN-NH2 (disulfide 2-7 (inferred)) [SEQ ID NO 223], the “IC50, pStat3 HTRF (nM)” value is below 1 nM. With B13, the “IC50, pStat3 HTRF (nM)” value was below 1 nM. With Ac-[dK]([Glu-Ac])[Pen]NTWK(Ac)[Pen][AEF][2Nal][αMeL]K(Ac)NN-NH2 (disulfide 2-7 (inferred)) [SEQ ID NO 230], the “IC50, pStat3 HTRF (nM)” value is below 1 nM.

The next experiment deals with IL-23R-expressing DB cells stimulated with IL-23 (pSTAT3 levels). In words: DB cells IL23R pSTAT3 cell assay (Cisbio HTRF pSTAT3). Format: cell-based, human. The conditions noted are these: Table E1, Pen-Pen disulfide peptides, IL-23 0.5 nM, 30 minutes at 37° C. The source says:
Human ELISA indicates the IL23-IL23R competitive binding assay described below, Rat ELISA indicates the rat IL-23R competitive binding ELISA assay described below, and pStat3HTRF indicates the DB cells IL-23R pSTAT3 cell assay described below. The peptides depicted in Table E1 are cyclized via a disulfide bridge formed between two Pen residues in these peptides. The peptides depicted in Table E2 are cyclized via a thioether bond between the indicated amino acid residues. Table E2 provides an illustrative structure depicting thioether cyclization, which is indicated in the table by the term “cyclo,” with the cyclic region bracketed immediately following the term “cyclo.” For certain peptides, the residue Abu is present where indicated, whereas in other embodiments, e.g., those related to the non-cyclized form, the Abu may be referred to as a hSer(Cl) or homoSer residue.
DB Cells IL23R pSTAT3 Cell Assay
IL-23 plays a central role in supporting and maintaining Th17 differentiation in vivo. […] This cell assay examines the levels of pSTAT3 in IL-23R-expressing DB cells when stimulated with IL-23 in the presence of test compounds.
“8 (Ac-[Pen]NTWQ[Pen][AEF]W[Thp]K(Ac)NN-NH2; disulfide 1-6 (inferred)) [compound 8]” showed an IC50 of 1 to 10 nM.

The same experiment, now with this note: Table E2, thioether peptides, IL-23 0.5 nM, 30 minutes at 37° C.
In turn, “73 (XXQTWQCXXXEND; MOD_RES (1)..(1) D-form arginine; MOD_RES (2)..(2) Abu; (2)..(7) residues cyclosized; MOD_RES (8)..(8) 4-(2-aminoethoxy)-L-phenylalanine; MOD_RES (9)..(9) L-2-Napthylalanine; MOD_RES (10)..(10) 4-amino-4-carboxy-tetrahydropyran) [compound 73]” returned an IC50 of 1 to 10 nM. The molecule “74 (XXQTWQCXXXEDN; MOD_RES (1)..(1) D-form arginine; MOD_RES (2)..(2) Abu; (2)..(7) residues cyclosized; MOD_RES (8)..(8) 4-(2-aminoethoxy)-L-phenylalanine; MOD_RES (9)..(9) L-2-Napthylalanine; MOD_RES (10)..(10) 4-amino-4-carboxy-tetrahydropyran) [compound 74]” displayed an IC50 of 10 to 100 nM.

For “75 (XXQTWECXXXENN; MOD_RES (1)..(1) D-form arginine; MOD_RES (2)..(2) Abu; (2)..(7) residues cyclosized; MOD_RES (8)..(8) 4-(2-aminoethoxy)-L-phenylalanine; MOD_RES (9)..(9) L-2-Napthylalanine; MOD_RES (10)..(10) 4-amino-4-carboxy-tetrahydropyran) [compound 75]”, the IC50 was in the range of 1 to 10 nM. Molecule “77 (Ac-[dR][Abu]QTWQC[AEF][2Nal][Thp]EDD-NH2; thioether 2-7) [compound 77]” returned an IC50 of 10 to 100 nM.
